# Measurements as given in patent publication US20200407433A1 (REMD BIOTHERAPEUTICS, published 2020).
# Where a chain is given by its changes, count along the chain named.
# T1: human Calcitonin Gene-Related Peptide (CGRP) (human, not fully specified)
# T1 peptide: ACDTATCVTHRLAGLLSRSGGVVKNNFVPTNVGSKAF
# B1: murine mAb 30B8G9B11 (antibody, mouse IgG2a, V domains shown)
# VH: EVQLQQSGPELVKPGASVKISCKASGYTFTDYYMNWVKQSHGKSLEWIGDVNPNNGGTHYNQKFKGKATLTVDKSSSTAYMELRSLTSEDSAVYYCASITIVPVYFDFWGQGTTLTVSS
# VL: DIVMTQSQKFMSTSVGDRVSVTCKASQNVGPNVAWYRQKPGQSPKALIYSASYRYSGVPDRFTGSGSGTDFTLTISNVQSEDLADYICQQYNYYPYTFGGGTKLEIK
# notes: Murine IgG2a, kappa; also called A3; Murine A3
# B2: murine mAb 6G5C8C4 (antibody, mouse IgG2a, V domains shown)
# VH: B1 VH with V51I, H59T, S77T, S98V, V104Y, F108Y
# VL: B1 VL with P31S, R37Q, Y53F, G57R, T63S, I87F, Y93S, G100A, I106L
# notes: Murine IgG2a, kappa; also called A1; 6G5C8C4 ("A1")
# B3: murine mAb 24G7B10G2 (antibody, mouse IgG2a, V domains shown)
# VH: B1 VH with Q5L, V12M, A16T, G57D, H59T, V72I, V104L, T116A
# VL: B1 VL with P31I, R37Q, I48L, Q79K, E81G, D85E, I87F, Y93T
# notes: Murine IgG2a, kappa; also called A2; 24G7B10G2 ("A2")
# B4: REMD 128 (antibody, human IgG4 S228P, kappa, V domains shown)
# VH: QVQLVQSGAEVVKPGASVKVSCKASGYTFTDYYMNWVKQAPGQGLEWIGDVNPNNGGTHYNQKFKGRVTLTVDTSISTAYMELSRLRSDDTAVYYCASITIVPVYFDFWGQGTLVTVSS
# VL: DIQLTQSPSFLSASVGDRVTITCKASQNVGPNVAWYRQKPGKAPKALIYSASYRYSGVPSRFSGSGSGTEFTLTISSLQPEDFATYICQQYNYYPYTFGQGTKLEIKR
# notes: Humanized full-length IgG (IgG4 constant region, kappa); also called IgG 10 (H3/L2); 10 (H3/L2)
# B5: REMD 128.2 (antibody, human IgG4 S228P, kappa, V domains shown)
# VH: B4 VH with V20I, V68A, V115L
# VL: B4 VL with A13T, A43S
# notes: Humanized full-length IgG (IgG4 constant region, kappa); also called IgG 15 (H4/L3); 15 (H4/L3)
# B6: REMD 128.1 (antibody, human IgG4 S228P, kappa, V domains shown)
# VH: B4 VH
# VL: B4 VL with A13T, A43S
# notes: Humanized full-length IgG (IgG4 constant region, kappa); also called IgG 11 (H3/L3); 11 (H3/L3)
# B7: REMD 128.3 (antibody, human IgG4 S228P, kappa, V domains shown)
# VH: B4 VH with V20I, V68A, V115L
# VL: B4 VL
# notes: Humanized full-length IgG (IgG4 constant region, kappa); also called IgG 14 (H4/L2); 14 (H4/L2)
# B8: murine-human chimeric IgG4 derived from murine antibody A3 (antibody, V domains shown)
# VH: B1 VH
# VL: DIVMTQSQKFMSTSVGDRVSVTCKASQNVGPNVAWYRQKPGQSPKALIYSASYRYSGVPDRFTGSGSGTDFTLTISNVQSEDLADYICQQYNYYPYTFGGGTKLEIKR
# notes: also called chimeric antibody
# Target: T1, human Calcitonin Gene-Related Peptide …
# Experiment: cell-based or functional assay
row,SK-N-MC CGRP IC50 (pM),Binder
1,152 pM,B1
2,101 pM,B2
3,195 pM,B3

# Target: T1, human Calcitonin Gene-Related Peptide …
# Experiment: cell-based or functional assay
# Remark: another data set of the same source
row,SK-N-MC IC50 (pM),Binder
1,49.2 pM,B4
2,60.4 pM,B5
3,38.9 pM,B6
4,59.8 pM,B7
5,152 pM,B1
6,152 pM,B8

# Target: T1, human Calcitonin Gene-Related Peptide …
# Experiment: ELISA, human CGRP binding
row,EC50,Binder
1,0.07 nM,B1
2,0.1 nM,B2
3,0.08 nM,B3

# Target: T2, Rodent CGRP (rodent (murine))
# T2 construct: also called murine CGRP
# T2 sequence (Q99JA0 83-119): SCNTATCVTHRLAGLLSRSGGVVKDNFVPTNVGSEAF
# Experiment: ELISA, rodent CGRP binding
row,EC50,Binder
1,0.296 nM,B1
2,0.361 nM,B2
3,0.328 nM,B3

# Target: T1, human Calcitonin Gene-Related Peptide …
# Experiment: SPR Biacore 8k; antibody amine-coupled to chip, CGRP as analyte
# Procedure: The recombinant IgGs secreted to the medium and were purified using protein A affinity chromatography. Evaluating from the SDS-PAGE, the purity of humanized IgGs were all over 90%. The affinities of purified antibodies binding to CGRP were determined using a Surface Plasmon Resonance (SPR) biosensor, Biacore 8k. Antibodies were immobilized on the sensor chip through amine coupling method. Antigen CGRP was used as the analyte. The data of dissociation (kd) and association (ka) rate constants were obtained using Biacore 8k evaluation software. The equilibrium dissociation constants (KD) were calculated from the ratio of kd over ka.
Kd,koff,kon,Binder
1.37 pM,5.79e-06 s⁻¹,4.23e+06 M⁻¹ s⁻¹,B4
1.52 pM,7.57e-06 s⁻¹,4.97e+06 M⁻¹ s⁻¹,B5
1.57 pM,7.61e-06 s⁻¹,4.86e+06 M⁻¹ s⁻¹,B6
1.54 pM,7.01e-06 s⁻¹,4.55e+06 M⁻¹ s⁻¹,B7
3.53 pM,1.19e-05 s⁻¹,3.37e+06 M⁻¹ s⁻¹,B8

# Target: T1, human Calcitonin Gene-Related Peptide …
# Experiment: SPR Biacore T200; antibody amine-coupled to chip, CGRP as analyte
# Procedure: The binding affinity between the chimeric IgG4 to antigen CGRP was determined using a Surface Plasmon Resonance (SPR) biosensor, Biacore T200 (GE Healthcare). 30B8G9B11 (“A3”) and chimeric IgG4 were each immobilized on the sensor chip through an amine coupling method. Antigen CGRP protein was used as analyte. The data of dissociation (kd) and association (kₐ) rate constants were obtained using Biacore T200 evaluation software. The equilibrium dissociation constants (KD) were calculated from the ratio of kd over kₐ.
Kd,koff,kon,Binder
2.92 pM,1.56e-05 s⁻¹,5.33e+06 M⁻¹ s⁻¹,B1
2.4 pM,1.51e-05 s⁻¹,6.28e+06 M⁻¹ s⁻¹,B8
